Experimental data as given in US20170056486A1.

Biological target: HLA-A*24 (human)
Test: UV-exchange ELISA (anti-b2m); yield 50%-75%

Binder | peptide exchange yield
IYEETRGVL | 50 to 75%
PYLQDVPRI | 50 to 75%
IFGIFPNQF | 50 to 75%
RYLEAALRL | 50 to 75%
EYLSTCSKL | 50 to 75%
IYPEWPVVFF | 50 to 75%
TYGMVMVTF | 50 to 75%
EYFTPLLSGQF | 50 to 75%
TYTNTLERL | 50 to 75%
RYGLPAAWSTF | 50 to 75%
AYIKGGWIL | 50 to 75%
VFPRLHNVLF | 50 to 75%
VFSRDFGLLVF | 50 to 75%
VYALKVRTI | 50 to 75%
SYLKAVFNL | 50 to 75%
KYLNSVQYI | 50 to 75%
PYFFANQEF | 50 to 75%
EYQARIPEF | 50 to 75%
FYINGQYQF | 50 to 75%
NYIPVKNGKQF | 50 to 75%
IYQYVADNF | 50 to 75%
RYGDGGSSF | 50 to 75%
YYLSDSPLL | 50 to 75%
NYYERIHAL | 50 to 75%
LYSELNKWSF | 50 to 75%

Binder | peptide exchange yield
PYLVVIHTL | 50 to 75%
NYSSAVQKF | 50 to 75%
QYLTAAALHNL | 50 to 75%
IYNETVRDLL | 50 to 75%
HYVPATKVF | 50 to 75%
LYSELTETL | 50 to 75%
IYLSDLTYI | 50 to 75%
IYRFITERF | 50 to 75%
VYIESRIGTSTSF | 50 to 75%
VYQSLSNSL | 50 to 75%
KYLEDMKTYF | 50 to 75%
LYSPVPFTL | 50 to 75%
VYPFENFEF | 50 to 75%
RYGFYYVEF | 50 to 75%
KYLQVVGMF | 50 to 75%
KYIFQLNEI | 50 to 75%
IYNFVESKL | 50 to 75%
RYVEGIVSL | 50 to 75%
RYLNKSFVL | 50 to 75%
EYLDRIGQLFF | 50 to 75%
KYLMELTLI | 50 to 75%
IYQFVADSF | 50 to 75%
GYKTFFNEF | 50 to 75%
FYVNVKEQF | 50 to 75%
LYSDAFKFIVF | 50 to 75%

Binder | peptide exchange yield
NYITGKGDVF | 50 to 75%
LYLAFPLAF | 50 to 75%
KYFPYLVVI | 50 to 75%
SYLNHLNNL | 50 to 75%
IYSFHTLSF | 50 to 75%
AYIPTPIYF | 50 to 75%
SYPKIIEEF | 50 to 75%
GYNPNRVFF | 50 to 75%
TYPDGTYTGRIF | 50 to 75%
NYEDHFPLL | 50 to 75%
VYPPYLNYL | 50 to 75%
VFIHHLPQF | 50 to 75%
RYSTFSEIF | 50 to 75%
QYFTGNPLF | 50 to 75%
VYRVYVTTF | 50 to 75%
VYVQILQKL | 50 to 75%
VYFKAGLDVF | 50 to 75%
KYPDIVQQF | 50 to 75%
IYNETITDLL | 50 to 75%
SYNGHLTIWF | 50 to 75%
DYIPASGFALF | 50 to 75%
TYIPVGLGRLL | 50 to 75%
LYLENNAQTQF | 50 to 75%
VYPVVLNQI | 50 to 75%
VYEKNGYIYF | 50 to 75%
